Results: patent US20100184636A1 (POSTECH ACADEMY INDUSTRY FOUNDATION, published 2010)

B1: PLD2^ΔN308 (enzyme)
chain: LAQGPGRDFLQLHRHDSYAPPRPGTLARWFVNGAGYFAAVADAILRAQEEIFITDWWLSPEVYLKRPAHSDDWRLDIMLKRKAEEGVRVSILLFKEVELALGINSGYSKRALMLLHPNIKVMRHPDQVTLWAHHEKLLVVDQVVAFLGGLDLAYGRWDDLHYRLTDLGDSSESAASQPPTPRPDSPATPDLSHNQFFWLGKDYSNLITKDWVQLDRPFEDFIDRETTPRMPWRDVGVVVHGLPARDLARHFIQRWNFTKTTKAKYKTPIYPYLLPKSTSTANQLPFTLPGGQCTTVQVLRSVDRWSAGTLENSILNAYLHTIRESQHFLYIENQFFISCSDGRTVLNKVGDEIVDRILKAHKQGWCYRVYVLLPLLPGFEGDISTGGGNSIQAILHFTYRTLCRGEYSILHRLKAAMGTAWRDYISICGLRTHGELGGHPVSELIYIHSKVLIADDRTVIIGSANINDRSLLGKRDSELAVLIEDTETEPSLMNGAEYQAGRFALSLRKHCFGVILGANTRPDLDLRDPICDDFFQLWQDMAESNANIYEQIFRCLPSNATRSLRTLREYVAVEPLATVSPPLARSELTQVQGHLVHFPLKFLEDESLLPPLGSKEGMIPLEVWT
notes: N-terminal 308 residues deleted, by analogy with ΔN184; also called ΔN308 PLD2
B2: HA-raptor^1020-1335 (other)
chain: NRNPGVPSVVKFHPFTPCIAVADKDSICFWDWEKGEKLDYFHNGNPRYTRVTAMEYLNGQDCSLLLTATDDGAIRVWKNFADLEKNPEMVTAWQGLSDMLPTTRGAGMVVDWEQETGLLMSSGDVRIVRIWDTDREMKVQDIPTGADSCVTSLSCDSHRSLIVAGLGDGSIRVYDRRMALSECRVMTYREHTAWVVKASLQKRPDGHIVSVSVNGDVRIFDPRMPESVNVLQIVKGLTALDIHPQADLIACGSVNQFTAIYNSSGELINNIKYYDGFMGQRVGAISCLAFHPHWPHLAVGSNDYYISVYSVEKRVR
notes: also called WD40 repeat region of raptor; not shown: HA tag

Assays:
[1] = target: myc-mTOR^wt (human, UniProt P42345 1-2549); assay: co-IP of myc-mTOR^wt with PLD2 fragments (FIG. 5)
Procedure: (§1) After harvesting COS7 cells, total extracts were prepared by brief sonication in ice-cold lysis buffer (40 mM HEPES pH7.5, 120 mM NaCl, 1 mM EDTA, 10 mM pyrophosphate, 10 mM glycerophosphate, 50 mM NaF, 1.5 mM Na₃VO₄, 0.5% CHAPS, 1 mM PMSF, protease inhibitor cocktails). Clarified extracts were mixed with 2 μg of the respective antibodies. Then protein A-Sepharose beads were added to isolate the antibody complex. After four washings with lysis buffer, the final immunoprecipitates were washed once with wash buffer (50 mM HEPES pH7.5, 150 mM NaCl), and then subjected to SDS-PAGE using Hyperfilm (Amersham Pharmacia Biotech), nitrocellulose membranes (Watmann), Power supply (Amersham Pharmacia Biotech), Electrophoretic Transfer unit (Hoefer Scientific Instruments), and ECL™ (Amersham Pharmacia Biotech).

[2] = target: T1, phospholipase D2, wild type (PLD2^wt) (Homo sapiens, UniProt O14939 1-933); assay: co-IP with anti-HA antibody of HA-raptor constructs with PLD2^wt (FIG. 11)
T1 construct: also called recombinant PLD2; hPLD2
Procedure: as §1

Row | Binder | binding result [1] | binding result [2]
1 | B1 | no binding | –
2 | B2 | – | binds
